Experimental findings from patent US6566104 are described below.

For the experiment, the target named is endogenous ErbB-4 of T47D human breast cancer cells (human) (UniProt Q15303). The experiment is described as follows: cell-based or functional assay.
Sequence of UniProt Q15303 (Q15303 26-1308, stated change not applied): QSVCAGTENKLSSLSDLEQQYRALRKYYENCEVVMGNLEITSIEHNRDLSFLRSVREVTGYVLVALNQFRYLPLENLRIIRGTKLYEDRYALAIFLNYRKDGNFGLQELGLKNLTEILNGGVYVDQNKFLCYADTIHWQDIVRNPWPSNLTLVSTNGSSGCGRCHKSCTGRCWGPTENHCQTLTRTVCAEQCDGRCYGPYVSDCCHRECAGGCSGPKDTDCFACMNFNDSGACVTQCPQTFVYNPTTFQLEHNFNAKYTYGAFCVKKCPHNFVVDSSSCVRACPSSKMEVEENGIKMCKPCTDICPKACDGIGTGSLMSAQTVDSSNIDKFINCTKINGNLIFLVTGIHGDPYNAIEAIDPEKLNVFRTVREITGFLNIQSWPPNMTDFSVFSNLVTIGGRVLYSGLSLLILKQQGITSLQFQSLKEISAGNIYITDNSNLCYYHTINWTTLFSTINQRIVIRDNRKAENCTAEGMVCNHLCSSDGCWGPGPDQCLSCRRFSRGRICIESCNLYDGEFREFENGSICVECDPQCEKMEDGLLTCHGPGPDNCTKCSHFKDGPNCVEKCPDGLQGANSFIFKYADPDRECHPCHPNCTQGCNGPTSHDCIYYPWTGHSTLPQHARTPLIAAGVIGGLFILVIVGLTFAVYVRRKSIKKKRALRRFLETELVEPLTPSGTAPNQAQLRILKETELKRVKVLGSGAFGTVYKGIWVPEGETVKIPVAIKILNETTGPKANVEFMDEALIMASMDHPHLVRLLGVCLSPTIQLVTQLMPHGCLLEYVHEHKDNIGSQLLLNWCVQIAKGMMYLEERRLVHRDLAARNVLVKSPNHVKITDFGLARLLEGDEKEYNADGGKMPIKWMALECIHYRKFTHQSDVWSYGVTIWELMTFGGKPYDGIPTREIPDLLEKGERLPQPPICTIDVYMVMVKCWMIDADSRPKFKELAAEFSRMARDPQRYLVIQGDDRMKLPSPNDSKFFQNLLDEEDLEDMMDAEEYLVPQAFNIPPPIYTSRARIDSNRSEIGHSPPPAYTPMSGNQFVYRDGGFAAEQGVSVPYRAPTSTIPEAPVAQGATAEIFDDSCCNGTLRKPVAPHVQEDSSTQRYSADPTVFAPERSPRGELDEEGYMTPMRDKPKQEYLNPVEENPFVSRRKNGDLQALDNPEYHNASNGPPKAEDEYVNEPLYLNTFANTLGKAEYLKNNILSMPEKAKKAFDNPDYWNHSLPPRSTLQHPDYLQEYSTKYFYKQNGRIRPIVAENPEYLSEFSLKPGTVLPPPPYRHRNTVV

Turning to “NRG1-α (from UniProt Q02297 177-241) (ligand)”, the colony formation in soft agar, T47D wild type cells treated with neuregulin (FIG. 13) stood at 11 fold and the colony formation in soft agar, ribozyme transfected T47D cells (T47D/Rz, ErbB-4 down-regulated) came to 2.5 fold.
